Measurements published in the supplement of paper PMC10724198.
± gives the standard deviation of the averaged measurements.

System: Saccharomyces cerevisiae
Assay: protein stability index of tFT-peptide fusion (C-terminal peptide) (PSI (0-1 scale)); higher = more stable (slower turnover)
Settings: temperature: 30 C
Method: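 MPS profiling in S. cerevisiae of the yeast C-terminome library: the last 12 aa of each annotated ORF are fused to the C-terminus of a sfGFP-mCherry timer, after a GGGS linker. Cells are FACS-sorted into 8 mCherry/sfGFP bins and deep-sequenced. PSI runs from 0 (unstable) to 1 (stable); wild type and das1Δ backgrounds, two technical replicates each.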

[1] = genetic background: das1 deletion

Sequence | protein stability index [1] | protein stability index (genetic background: wild type)
DYKLRELIYDTI [AIP5 C-terminal 12 aa] | 0.7014 ± 0.0011 | 0.661 ± 0.018
MSSTKKVRFVML [RMD5 C-terminal 12 aa] | 0.696 ± 0.035 | 0.642 ± 0.035
NYQKNEPVEFLE [MIN9 C-terminal 12 aa] | 0.711 ± 0.0097 | 0.656 ± 0.026
KSDLISNIRQKI [RBH1 C-terminal 12 aa] | 0.716 ± 0.035 | 0.638 ± 0.037
EVEKIVKKVLKD [DBP5 C-terminal 12 aa] | 0.7225 ± 0.0038 | 0.6553 ± 0.0058
EWTKLYAKKKPE [UBC13 C-terminal 12 aa] | 0.6853 ± 0.0049 | 0.711 ± 0.01
KGMKRLDYRFIH [SOA1 C-terminal 12 aa] | 0.688 ± 0.029 | 0.234 ± 0.012
GYACPTHYLREM [MXR1 C-terminal 12 aa] | 0.6899 ± 0.0052 | 0.7169 ± 0.0063
HIREDYLRQFGN [KTR5 C-terminal 12 aa] | 0.691 ± 0.027 | 0.616 ± 0.022
GAQIISLDEDVF [GIP1 C-terminal 12 aa] | 0.715 ± 0.045 | 0.716 ± 0.037
GSSLITEGVYVI [NSE1 C-terminal 12 aa] | 0.686 ± 0.021 | 0.683 ± 0.028
SAENEESKEKCE [LAG1 C-terminal 12 aa] | 0.696 ± 0.051 | 0.658 ± 0.021
LFMNAVIKTFKK [DGK1 C-terminal 12 aa] | 0.7 ± 0.0083 | 0.6997 ± 0.0014
RLKSQNVVTYYK [NIP100 C-terminal 12 aa] | 0.707 ± 0.032 | 0.692 ± 0.015
YLRFKENPEEKW [AIM29 C-terminal 12 aa] | 0.711 ± 0.011 | 0.753 ± 0.086
ERAYMYYLRNGK [NAM9 C-terminal 12 aa] | 0.656 ± 0.023 | 0.625 ± 0.021
GSAAVAGALLLL [YNL190W C-terminal 12 aa] | 0.689 ± 0.02 | 0.664 ± 0.023
ILRPLELKYFGR [FCY2 C-terminal 12 aa] | 0.707 ± 0.029 | 0.675 ± 0.027
SFPVVEPMGGST [BDS1 C-terminal 12 aa] | 0.69 ± 0.012 | 0.727 ± 0.014
EELFEEDSFYKY [NDT80 C-terminal 12 aa] | 0.736 ± 0.011 | 0.759 ± 0.019
YKERDLIDRSAY [VTS1 C-terminal 12 aa] | 0.681 ± 0.014 | 0.706 ± 0.032

Sequence | protein stability index [1] | protein stability index (genetic background: wild type)
DFENKLKKKKRK [TMA64 C-terminal 12 aa] | 0.7268 ± 0.0047 | 0.715 ± 0.018
SSSSTSVNKTLD [VIP1 C-terminal 12 aa] | 0.734 ± 0.04 | 0.707 ± 0.053
EIKPYLRFTKSK [PRX1 C-terminal 12 aa] | 0.692 ± 0.011 | 0.718 ± 0.085
NGTMKRGGVKNK [HPC2 C-terminal 12 aa] | 0.697 ± 0.02 | 0.6239 ± 0.0045
YWRKQYPEVDLP [UIP3 C-terminal 12 aa] | 0.728 ± 0.018 | 0.744 ± 0.017
GESISMLFEHGW [PRS5 C-terminal 12 aa] | 0.719 ± 0.012 | 0.7458 ± 0.0051
FLFHCVHLLLSG [YDR535C C-terminal 12 aa] | 0.511 ± 0.011 | 0.4909 ± 0.003
QQFYKDVYAMQD [THI2 C-terminal 12 aa] | 0.74 ± 0.018 | 0.6413 ± 0.001
LFQALKLEWEII [TEP1 C-terminal 12 aa] | 0.7038 ± 0.0018 | 0.69 ± 0.037
AGATTSRFIPLK [RPS15 C-terminal 12 aa] | 0.685 ± 0.023 | 0.652 ± 0.01
ILRNASQIVSSV [VPS1 C-terminal 12 aa] | 0.7029 ± 0.0038 | 0.6942 ± 0.0029
AKVYFLGRDSSI [NDE1 C-terminal 12 aa] | 0.708 ± 0.016 | 0.741 ± 0.076
HKSGKLLLPVYI [ECO1 C-terminal 12 aa] | 0.636 ± 0.0084 | 0.619 ± 0.03
IDTWEIKFNELF [YLR287C C-terminal 12 aa] | 0.732 ± 0.042 | 0.6954 ± 0.0012
RRFDVYSDVNAH [NIT3 C-terminal 12 aa] | 0.71 ± 0.0033 | 0.677 ± 0.044
FYIDKFQVREVK [SUC2 C-terminal 12 aa] | 0.7059 ± 0.0061 | 0.683 ± 0.038
GKGAIDGFFKRK [RNH202 C-terminal 12 aa] | 0.694 ± 0.03 | 0.6575 ± 0.004
AAIPVILAKIKV [SHE4 C-terminal 12 aa] | 0.502 ± 0.019 | 0.56 ± 0.13
NIYNPMDEEENQ [TFB5 C-terminal 12 aa] | 0.718 ± 0.025 | 0.683 ± 0.032
THFFSIEWAGFG [SEN34 C-terminal 12 aa] | 0.7116 ± 0.0045 | 0.725 ± 0.041
NNFCALYNLSNP [RPN14 C-terminal 12 aa] | 0.714 ± 0.022 | 0.6867 ± 0.0038

Sequence | protein stability index [1] | protein stability index (genetic background: wild type)
LKMDKLGNYILE [RIO2 C-terminal 12 aa] | 0.717 ± 0.027 | 0.65 ± 0.043
VGRHSSRLMCPG [YBR126W-B C-terminal 12 aa] | 0.6932 ± 0.0053 | 0.689 ± 0.022
HLQRCLSRGARR [SGF11 C-terminal 12 aa] | 0.698 ± 0.016 | 0.759 ± 0.039
LPFSVEPTTSRM [YFR036W-A C-terminal 12 aa] | 0.6999 ± 0.0065 | 0.687 ± 0.017
LEHMLEGKEQDE [PRM5 C-terminal 12 aa] | 0.707 ± 0.025 | 0.751 ± 0.036
VVVVVPAVVKTR [SSO1 C-terminal 12 aa] | 0.503 ± 0.011 | 0.5221 ± 0.0046
DILKILSSSFHN [SPC29 C-terminal 12 aa] | 0.7095 ± 0.0039 | 0.709 ± 0.014
KWGMEDSPPPYH [MDM34 C-terminal 12 aa] | 0.734 ± 0.028 | 0.6942 ± 0.0043
MKEKLKHSRKYM [SHY1 C-terminal 12 aa] | 0.7121 ± 0.0039 | 0.6685 ± 0.0027
QDYVKDRHHGLK [NUP157 C-terminal 12 aa] | 0.698 ± 0.01 | 0.679 ± 0.043
YVASHESQKADE [RRP5 C-terminal 12 aa] | 0.6883 ± 0.0054 | 0.741 ± 0.072
SELQQIFPVSQQ [SPS100 C-terminal 12 aa] | 0.706 ± 0.011 | 0.689 ± 0.033
DDSKILIEHLSE [PET54 C-terminal 12 aa] | 0.697 ± 0.024 | 0.662 ± 0.04
EAAKYFREQYKN [MET6 C-terminal 12 aa] | 0.7045 ± 0.0028 | 0.7172 ± 0.0068
ELQEKVEQLSKW [POL3 C-terminal 12 aa] | 0.7208 ± 0.00089 | 0.688 ± 0.026
WAVICFCSGIHK [YMR027W C-terminal 12 aa] | 0.5858 ± 0.0021 | 0.546 ± 0.013
NTGFDPHLEDGM [TBF1 C-terminal 12 aa] | 0.708 ± 0.032 | 0.691 ± 0.039
ENVLFYIGRVNK [COB C-terminal 12 aa] | 0.726 ± 0.026 | 0.669 ± 0.017
KKLNFKLCQAFM [NUP85 C-terminal 12 aa] | 0.673 ± 0.012 | 0.6183 ± 0.006
ILWKNGIYIAHI [HUR1 C-terminal 12 aa] | 0.659 ± 0.01 | 0.6113 ± 0.0034
GGNLPQGYFYTQ [GTS1 C-terminal 12 aa] | 0.707 ± 0.0075 | 0.69615 ± 0.00011

Sequence | protein stability index [1] | protein stability index (genetic background: wild type)
DLLDMIDSLGKL [FSH3 C-terminal 12 aa] | 0.688 ± 0.023 | 0.694 ± 0.056
DRVQRAFPKPDT [GLG2 C-terminal 12 aa] | 0.704 ± 0.016 | 0.686 ± 0.032
DVLDDLYRKLQR [CSE2 C-terminal 12 aa] | 0.7138 ± 8.1e-05 | 0.699 ± 0.02
VARYKMVSKRIW [EMP65 C-terminal 12 aa] | 0.717 ± 0.011 | 0.654 ± 0.018
DQAKDASPNAKK [RGM1 C-terminal 12 aa] | 0.694 ± 0.0073 | 0.673 ± 0.011
FSRASCITVWLV [YPR160C-A C-terminal 12 aa] | 0.6275 ± 0.0035 | 0.228 ± 0.027
AAGKANKQFAKF [RPS11A C-terminal 12 aa] | 0.8136 ± 0.0019 | 0.807 ± 0.042
AIFTAFTQVVLI [TOH1 C-terminal 12 aa] | 0.4858 ± 0.0044 | 0.4983 ± 0.00094
LPLKLTRKVHDR [RIF2 C-terminal 12 aa] | 0.705 ± 0.05 | 0.713 ± 0.012
DAYHKAAEENKD [MCT1 C-terminal 12 aa] | 0.6729 ± 0.0053 | 0.693 ± 0.016
STCIYLYTHNSM [YBR206W C-terminal 12 aa] | 0.672 ± 0.027 | 0.673 ± 0.023
HEKRTEEVARYA [YGR026W C-terminal 12 aa] | 0.7173 ± 0.0035 | 0.6604 ± 0.0066
ESGPSIVHHKCF [ACT1 C-terminal 12 aa] | 0.6875 ± 0.003 | 0.6963 ± 0.0026
VEPVYLCASLSL [YCR047W-A C-terminal 12 aa] | 0.666 ± 0.027 | 0.6733 ± 0.00078
DERRQPVSNLRM [YDL163W C-terminal 12 aa] | 0.712 ± 0.018 | 0.658 ± 0.01
QKARDFSRSVVH [ARO2 C-terminal 12 aa] | 0.696 ± 0.00098 | 0.698 ± 0.021
EIRKRRASSLKA [RPS6A C-terminal 12 aa] | 0.649 ± 0.021 | 0.646 ± 0.0092
YRVARKPSQPVM [MTO1 C-terminal 12 aa] | 0.685 ± 0.012 | 0.683 ± 0.027
PHSQNEILQYYL [NAT1 C-terminal 12 aa] | 0.705 ± 0.0095 | 0.722 ± 0.065
